Data taken from PMC8546121 (Nature Communications, 2021).

B1: MACV MBP-Z fusion protein (full-length wild-type MACV Z protein) (natural protein)
chain: MGNCNKPPKRPPNTQTSAAQPSAEFRRTALPSLYGRYNCKCCWFADTNLITCNDHYLCLRCHQTMLRNSELCHICWKPLPTSITVPVEPSAPPP

What was measured:
[1] = target: MACV MBP-Z fusion protein (full-length wild-type MACV Z protein) (Machupo virus) (UniProt Q6IUF9); test: […] (20 mM Tris-HCl pH 8.0, 500 mM NaCl, 2 mM DTT), […]
[2] = target: Machupo virus (MACV) L protein (Machupo virus, UniProt Q6IUF8 1-2209); test: as above; settings: both partners purified
Sequence of Machupo virus (MACV) L protein (Q6IUF8 whole entry): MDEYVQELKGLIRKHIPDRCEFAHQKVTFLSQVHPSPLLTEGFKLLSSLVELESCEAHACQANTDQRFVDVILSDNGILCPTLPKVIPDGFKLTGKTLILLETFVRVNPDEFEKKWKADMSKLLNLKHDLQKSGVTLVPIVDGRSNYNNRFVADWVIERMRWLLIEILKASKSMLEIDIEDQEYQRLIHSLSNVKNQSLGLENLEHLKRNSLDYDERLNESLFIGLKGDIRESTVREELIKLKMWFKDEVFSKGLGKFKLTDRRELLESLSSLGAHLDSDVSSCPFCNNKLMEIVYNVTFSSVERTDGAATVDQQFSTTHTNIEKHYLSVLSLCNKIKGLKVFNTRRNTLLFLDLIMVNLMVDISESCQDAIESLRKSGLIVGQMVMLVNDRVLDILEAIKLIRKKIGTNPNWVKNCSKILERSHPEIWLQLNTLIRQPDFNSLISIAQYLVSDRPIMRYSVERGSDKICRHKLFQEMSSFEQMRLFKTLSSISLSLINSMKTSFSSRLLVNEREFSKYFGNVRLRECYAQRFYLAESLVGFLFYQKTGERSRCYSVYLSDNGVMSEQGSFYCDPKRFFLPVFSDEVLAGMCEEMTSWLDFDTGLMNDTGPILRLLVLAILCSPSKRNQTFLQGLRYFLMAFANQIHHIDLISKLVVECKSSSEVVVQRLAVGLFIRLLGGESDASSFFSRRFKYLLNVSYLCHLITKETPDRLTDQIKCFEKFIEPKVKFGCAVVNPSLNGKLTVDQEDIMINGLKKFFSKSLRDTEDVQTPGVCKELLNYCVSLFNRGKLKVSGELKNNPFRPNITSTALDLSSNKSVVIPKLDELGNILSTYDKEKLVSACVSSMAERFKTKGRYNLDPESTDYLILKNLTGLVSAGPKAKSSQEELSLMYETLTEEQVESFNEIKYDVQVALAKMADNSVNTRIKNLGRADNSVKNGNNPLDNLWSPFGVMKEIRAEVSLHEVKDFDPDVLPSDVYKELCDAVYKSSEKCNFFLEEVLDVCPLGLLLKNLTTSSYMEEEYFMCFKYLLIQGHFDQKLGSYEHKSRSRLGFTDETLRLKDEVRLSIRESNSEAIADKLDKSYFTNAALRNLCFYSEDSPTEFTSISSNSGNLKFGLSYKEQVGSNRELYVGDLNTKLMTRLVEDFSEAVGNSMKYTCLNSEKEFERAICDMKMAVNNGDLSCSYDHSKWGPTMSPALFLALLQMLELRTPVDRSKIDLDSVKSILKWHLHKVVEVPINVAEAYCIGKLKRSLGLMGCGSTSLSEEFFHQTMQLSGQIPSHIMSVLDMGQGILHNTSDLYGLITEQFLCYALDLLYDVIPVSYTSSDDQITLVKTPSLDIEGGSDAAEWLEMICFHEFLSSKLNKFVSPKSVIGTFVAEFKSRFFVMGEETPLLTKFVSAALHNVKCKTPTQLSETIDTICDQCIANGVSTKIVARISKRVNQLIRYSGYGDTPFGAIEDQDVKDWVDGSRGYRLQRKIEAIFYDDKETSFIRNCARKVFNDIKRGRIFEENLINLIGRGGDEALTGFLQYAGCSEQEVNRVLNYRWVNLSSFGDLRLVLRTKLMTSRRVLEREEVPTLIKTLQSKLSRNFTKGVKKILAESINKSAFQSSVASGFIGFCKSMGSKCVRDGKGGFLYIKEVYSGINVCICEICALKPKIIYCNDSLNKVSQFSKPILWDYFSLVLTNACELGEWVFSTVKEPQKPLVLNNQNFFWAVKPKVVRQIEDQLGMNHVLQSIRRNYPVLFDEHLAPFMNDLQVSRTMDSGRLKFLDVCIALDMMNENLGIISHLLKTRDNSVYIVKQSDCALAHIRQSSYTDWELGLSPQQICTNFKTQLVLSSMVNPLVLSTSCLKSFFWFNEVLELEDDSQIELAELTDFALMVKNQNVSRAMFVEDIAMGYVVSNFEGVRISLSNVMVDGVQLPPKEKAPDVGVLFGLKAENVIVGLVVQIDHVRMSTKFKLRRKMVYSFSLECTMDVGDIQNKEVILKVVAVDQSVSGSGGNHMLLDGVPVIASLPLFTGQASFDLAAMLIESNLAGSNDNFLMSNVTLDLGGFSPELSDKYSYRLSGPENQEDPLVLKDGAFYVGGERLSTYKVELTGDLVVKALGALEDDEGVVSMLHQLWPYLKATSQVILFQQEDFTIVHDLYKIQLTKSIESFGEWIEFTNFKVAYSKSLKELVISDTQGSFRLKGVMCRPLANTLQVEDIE

Molecule	stoichiometry N [1]	binding result [2]
Machupo virus (MACV) L protein, Q6IUF8 1-2209	1 Z:L	
B1		binds
